Holding throughout (assay): ELISA of pooled CsCl fractions 9-15 of the purified particle
On the technique in general: In an ELISA, binding on a coated surface is turned into a signal by an enzyme label.

Assay [1] deals with purified HBs antigen particles produced by construct including the entire pre-S1-pre-S2-S region under control of the LTR region of rous sarcoma virus, with additional cotransfection with S (FIG. 13) (Hepatitis B virus (subtype not stated)).
Assay [2] has as its target purified HBs antigen particle produced from an HBV sequence construct including the pre-S1 region with total deletion of pre-S2 and deletions upstream of the pre-S2 ATG and the S region with deletion of the S ATG and downstream the S ATG through the XBaI site (e.g. the construct of FIG. 1A) (Hepatitis B virus (subtype not stated for the construct); Hepatitis B virus (subtype not stated)).

In assay [3] the target is purified HBs antigen particle produced from an HBV sequence construct including the pre-S2 region with none of the pre-S1 region and deletions upstream of the S ATG and the S region with deletion of the S ATG (e.g., the construct of FIG. 7B) (Hepatitis B virus (subtype not stated for the construct); Hepatitis B virus (subtype not stated)).
For assay [4], the target named is purified HBs antigen particle produced from an HBV sequence construct including the pre-S1 region with total deletion of pre-S2 and deletions upstream of the pre-S2 ATG and the S region with deletion of the S ATG (e.g., the construct of FIG. 6B) (Hepatitis B virus (subtype not stated for the construct); Hepatitis B virus (subtype not stated)).
Assay [5] deals with purified HBs antigen particle produced from an HBV sequence construct including the pre-S2 region with none of the pre-S1 region and deletions upstream of the S ATG and downstream of the S ATG through the XBaI site, and the S region with deletion of the S ATG (e.g. the construct of FIG. 2A) (Hepatitis B virus (subtype not stated for the construct); Hepatitis B virus (subtype not stated)).

E492 data for 1 substance are collected here from patent publication US6117653.

Take anti-pre-S1 monoclonal antibody MA 18/7: the E492 is 0.125 in assay [1]; 0.839 in assay [2]; 0 in assay [3]; 1.27 in assay [4]; 0 in assay [5].
